Experimental findings from paper doi:10.1101/2021.06.21.449265 (bioRxiv, 2021) are described below.

T1: Fy-1 (Tbck) (human, UniProt Q8TEA7 1-893)
T1 sequence (looked up): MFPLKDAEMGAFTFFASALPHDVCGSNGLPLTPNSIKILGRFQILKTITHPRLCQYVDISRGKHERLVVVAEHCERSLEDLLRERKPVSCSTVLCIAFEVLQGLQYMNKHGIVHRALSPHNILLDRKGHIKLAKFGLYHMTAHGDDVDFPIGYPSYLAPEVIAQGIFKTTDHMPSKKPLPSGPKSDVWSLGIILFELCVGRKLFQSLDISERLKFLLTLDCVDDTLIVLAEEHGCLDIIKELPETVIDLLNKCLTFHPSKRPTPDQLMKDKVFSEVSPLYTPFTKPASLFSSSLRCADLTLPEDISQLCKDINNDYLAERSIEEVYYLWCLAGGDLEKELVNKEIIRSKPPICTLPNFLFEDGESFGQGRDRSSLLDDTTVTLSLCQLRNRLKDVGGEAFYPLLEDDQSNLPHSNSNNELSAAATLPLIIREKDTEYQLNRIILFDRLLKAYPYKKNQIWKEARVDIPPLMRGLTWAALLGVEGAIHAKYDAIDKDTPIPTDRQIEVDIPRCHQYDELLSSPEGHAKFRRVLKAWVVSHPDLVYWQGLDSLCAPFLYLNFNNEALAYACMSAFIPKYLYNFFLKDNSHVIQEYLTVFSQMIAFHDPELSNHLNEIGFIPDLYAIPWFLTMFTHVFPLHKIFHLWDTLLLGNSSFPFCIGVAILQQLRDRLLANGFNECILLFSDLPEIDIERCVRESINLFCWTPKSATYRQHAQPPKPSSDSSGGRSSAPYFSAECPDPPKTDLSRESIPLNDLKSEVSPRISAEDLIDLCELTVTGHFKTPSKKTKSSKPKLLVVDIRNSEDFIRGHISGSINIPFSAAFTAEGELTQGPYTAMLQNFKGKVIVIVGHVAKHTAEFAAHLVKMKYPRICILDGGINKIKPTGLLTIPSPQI

B1: Fy-2 (Ppp1r21) (natural protein, human, UniProt Q6ZMI0 1-780, looked up)
chain: MASAELQGKYQKLAQEYSKLRAQNQVLKKGVVDEQANSAALKEQLKMKDQSLRKLQQEMDSLTFRNLQLAKRVELLQDELALSEPRGKKNKKSGESSSQLSQEQKSVFDEDLQKKIEENERLHIQFFEADEQHKHVEAELRSRLATLETEAAQHQAVVDGLTRKYMETIEKLQNDKAKLEVKSQTLEKEAKECRLRTEECQLQLKTLHEDLSGRLEESLSIINEKVPFNDTKYSQYNALNVPLHNRRHQLKMRDIAGQALAFVQDLVTALLNFHTYTEQRIQIFPVDSAIDTISPLNQKFSQYLHENASYVRPLEEGMLHLFESITEDTVTVLETTVKLKTFSEHLTSYICFLRKILPYQLKSLEEECESSLCTSALRARNLELSQDMKKMTAVFEKLQTYIALLALPSTEPDGLLRTNYSSVLTNVGAALHGFHDVMKDISKHYSQKAAIEHELPTATQKLITTNDCILSSVVALTNGAGKIASFFSNNLDYFIASLSYGPKAASGFISPLSAECMLQYKKKAAAYMKSLRKPLLESVPYEEALANRRILLSSTESREGLAQQVQQSLEKISKLEQEKEHWMLEAQLAKIKLEKENQRIADKLKNTGSAQLVGLAQENAAVSNTAGQDEATAKAVLEPIQSTSLIGTLTRTSDSEVPDVESREDLIKNHYMARIVELTSQLQLADSKSVHFYAECRALSKRLALAEKSKEALTEEMKLASQNISRLQDELTTTKRSYEDQLSMMSDHLCSMNETLSKQREEIDTLKMSSKGNSKKNKSR
B2: Fy-3 (C12orf4) (natural protein, human, UniProt Q9NQ89 1-552, looked up)
chain: MKKNRERFCNREREFVYKFKVGSQCLELRVPLKFPVQENASHLHGRLMLLHSLPCFIEKDLKEALTQFIEEESLSDYDRDAEASLAAVKSGEVDLHQLASTWAKAYAETTLEHARPEEPSWDEDFADVYHDLIHSPASETLLNLEHNYFVSISELIGERDVELKKLRERQGIEMEKVMQELGKSLTDQDVNSLAAQHFESQQDLENKWSNELKQSTAIQKQEYQEWVIKLHQDLKNPNNSSLSEEIKVQPSQFRESVEAIGRIYEEQRKLEESFTIHLGAQLKTMHNLRLLRADMLDFCKHKRNHRSGVKLHRLQTALSLYSTSLCGLVLLVDNRINSYSGIKRDFATVCQECTDFHFPRIEEQLEVVQQVVLYARTQRRSKLKESLDSGNQNGGNDDKTKNAERNYLNVLPGEFYITRHSNLSEIHVAFHLCVDDHVKSGNITARDPAIMGLRNILKVCCTHDITTISIPLLLVHDMSEEMTIPWCLRRAELVFKCVKGFMMEMASWDGGISRTVQFLVPQSISEEMFYQLSNMLPQIFRVSSTLTLTSKH
B3: Rab5 (Rab5a), GTPγS loaded (natural protein, human, UniProt P20339 1-215, looked up)
chain: MASRGATRPNGPNTGNKICQFKLVLLGESAVGKSSLVLRFVKGQFHEFQESTIGAAFLTQTVCLDDTTVKFEIWDTAGQERYHSLAPMYYRGAQAAIVVYDITNEESFARAKNWVKELQRQASPNIVIALSGNKADLANKRAVDFQEAQSYADDNSLLFMETSAKTSMNVNEIFMAIAKKLPKNEPQNPGANSARGRGVDLTEPTQPTRNQCCSN
B4: Fy-4 (Cryzl1) (natural protein, human, UniProt O95825 1-349, looked up)
chain: MKGLYFQQSSTDEEITFVFQEKEDLPVTEDNFVKLQVKACALSQINTKLLAEMKMKKDLFPVGREIAGIVLDVGSKVSFFQPDDEVVGILPLDSEDPGLCEVVRVHEHYLVHKPEKVTWTEAAGSIRDGVRAYTALHYLSHLSPGKSVLIMDGASAFGTIAIQLAHHRGAKVISTACSLEDKQCLERFRPPIARVIDVSNGKVHVAESCLEETGGLGVDIVLDAGVRLYSKDDEPAVKLQLLPHKHDIITLLGVGGHWVTTEENLQLDPPDSHCLFLKGATLAFLNDEVWNLSNVQQGKYLCILKDVMEKLSTGVFRPQLDEPIPLYEAKVSMEAVQKNQGRKKQVVQF
B5: Fy-5 (Gatd1) (natural protein, human, UniProt Q8NB37 1-220, looked up)
chain: MASERLPNRPACLLVASGAAEGVSAQSFLHCFTMASTAFNLQVATPGGKAMEFVDVTESNARWVQDFRLKAYASPAKLESIDGARYHALLIPSCPGALTDLASSGSLARILQHFHSESKPICAVGHGVAALCCATNEDRSWVFDSYSLTGPSVCELVRAPGFARLPLVVEDFVKDSGACFSASEPDAVHVVLDRHLVTGQNASSTVPAVQNLLFLCGSRK

The series “cryo-EM structure” deals with the molecule itself. In words: cryo-EM structure.
A further series has as its target T1, Fy-1 (Tbck). Description: HDX-MS.
Series [1] addresses B1. In words: HDX-MS.
In series [2] the target is B1. Description: cryo-EM structure.

By stoichiometry N is commonly meant the number of molecules, sites or subunits per partner or assembly. Consider B1, for which, in the series “cryo-EM structure”, the “stoichiometry N” value is 2. Besides, in the series with Fy-1 (Tbck), the binding result is “binds”. B2: in the series with Fy-2 (Ppp1r21) [1], the binding result is reported as “binds”. For B3, the binding result with Fy-2 (Ppp1r21) [1] was “binds”. Regarding B4, the binding result in the series with Fy-2 (Ppp1r21) [2] is listed as “binds”. The “stoichiometry N” value in the series “cryo-EM structure” came out at 2. With B5, the “stoichiometry N” value in the series “cryo-EM structure” was found to be 2.
